According to patent publication US20250197490A1 (HBM ALPHA THERAPEUTICS, published 2025):
Numbering of substitutions follows the chain as printed. Read-outs that look alike come from different tables or passages of the source.

T1: corticotropin-releasing hormone (CRH) peptide (human and mouse, UniProt P01143 145-185 (rat entry), not fully specified)
T1 peptide: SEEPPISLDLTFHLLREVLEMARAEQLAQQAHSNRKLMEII

B1: PR302334-1 (antibody, human IgG1, kappa, V domains shown)
VH: EVKLVESGGGLVKPGGSLKLSCAASGFTFSTYAMSWVRQTPEKRLEWVASIRSGGTTYYPDSVKGRFTISRDNARNILYLQMSSLRSEDTAIYYCTRGIDWGQGTLVTVSA
VL: EIVMTQSPATLSVSPGERATLSCKASQSVNNDVAWYQQKPGQAPRLLIYYASNRYTGIPARFSGSGSGTEFTLTISSLQSEDFAVYYCQQDYSSWTFGGGTKVEIKR
B2: PR302334-3 (antibody, human IgG1, kappa, V domains shown)
VH: B1 VH
VL: DIVMTQSPDSLAVSLGERATINCKASQSVNNDVAWYQQKPGQPPRLLIYYASNRYTGVPDRFSGSGSGTDFTLTISSLQAEDVAVYYCQQDYSSWTFGGGTKVEIKR
B3: PR302334-2 (antibody, human IgG1, kappa, V domains shown)
VH: B1 VH
VL: B1 VL with F83L, Y87F
B4: PR302334-4 (antibody, human IgG1, kappa, V domains shown)
VH: B1 VH
VL: B2 VL with V83L, Y87F
B5: PR302341-22 (antibody, human IgG1, kappa, V domains shown)
VH: QVQLVQSGAEVKKPGASVKVSCKASGYTFTDYFMKWVRQAPGQGLEWMGVINPNNGDIFYNQKFKGRVTMTRDTSISTAYMELSRLRSDDTAVYYCARGTDRALFAYWGQGTLVTVSS
VL: DVVMTQSPLSLPVTLGQPASISCRSGQSIVHSDGNTYLEWYQQRPGQSPRLLIYKVSNRFSGVPDRFSGSGSGTDFTLKISRVEAEDLGVYYCFQGSHIPWTFGGGTKVEIKR
B6: PR302341-26 (antibody, human IgG1, kappa, V domains shown)
VH: B5 VH with R72V, T74K
VL: B5 VL with S7T, L11S, S48P, S72A
B7: PR302309-1 (antibody, human IgG1, kappa, V domains shown)
VH: QIQLVQSGPELKKPGETVKISCKASGYTFTNYGMNWVKQAPGKVLKWMGWINTYTGEPIYTDDFKGRFAFSLETSASTAYLQINNLKNEDTATYFCSRSTMITTGGVFAYWGQGTLVTVSA
VL: B5 VL with G26S, S28T, Y41F, L51R, L88V, I99V
B8: PR302341-23 (antibody, human IgG1, kappa, V domains shown)
VH: B5 VH with R72V, T74K
VL: B5 VL
B9: PR302309-5 (antibody, human IgG1, kappa, V domains shown)
VH: B7 VH
VL: B5 VL with V2I, S7T, L11S, G26S, S28T, Y41L, S48P, S72A, L88V, I99V
B10: PR302309-2 (antibody, human IgG1, kappa, V domains shown)
VH: B7 VH
VL: B5 VL with G26S, S28T, I99V
B11: PR302309-4 (antibody, human IgG1, kappa, V domains shown)
VH: B7 VH
VL: B5 VL with S7T, P12S, L15P, G26S, S28T, Q42L, R44K, R50Q, I99V
B12: PR302309-6 (antibody, human IgG1, kappa, V domains shown)
VH: B7 VH
VL: B5 VL with S7T, L11S, G26S, S28T, S48P, S72A, I99V
B13: PR302341-27 (antibody, human IgG1, kappa, V domains shown)
VH: B5 VH with R72V, T74K
VL: B5 VL with S7T, P12S, L15P, Q42L, R44K, R50Q
B14: PR302341-18 (antibody, human IgG1, kappa, V domains shown)
VH: B5 VH with R72V, T74K
VL: B5 VL with V3L, S7T, T14S, Q17D, P18Q, Q42L, E84G, V90I, V109L, I111V
B15: PR302309-3 (antibody, human IgG1, kappa, V domains shown)
VH: B7 VH
VL: DIVMTQTPLSLSVTPGQPASISCRSSQTIVHSDGNTYLEWYLQKPGQSPQLLIYKVSNRFSGVPDRFSGSGSGTDFTLKISRVEAEDVGVYYCFQGSHVPWTFGGGTKVEIKR
B16: PR302334-27 (antibody, human IgG1, kappa, V domains shown)
VH: EVQLVESGGGLVQPGGSLRLSCAASGFTFSTYAMSWVRQAPGKGLEWVASIRSGGTTYYPDSVKGRFTISRDNSKNSLYLQMNSLRAEDTAVYYCTRGIDWGQGTTVTVSS
VL: DIQMTQSSLSASVSLGDRVTITCKASQSVNNDVAWYQQKPGKAPRLLIYYASNRYTGVPSRFSGSGSGTDFTFTISSLQPEDLATYFCQQDYSSWTFGGGTKVEIKR
B17: PR302334-15 (antibody, human IgG1, kappa, V domains shown)
VH: B16 VH with Q13K, A49S, S74A, T96A
VL: NIVMTQTPKFLLVSAGDRITITCKASQSVNNDVAWYQQKPGQSPKLLIYYASNRYTGVPDRFTGSGYGTDFTFTISTVQAEDLAVYFCQQDYSSWTFGGGTNLEIKR
B18: PR302334-6 (antibody, human IgG1, kappa, V domains shown)
VH: B1 VH
VL: B16 VL
B19: PR302334-10 (antibody, human IgG1, kappa, V domains shown)
VH: B16 VH with S77T
VL: B2 VL with V83L, Y87F
B20: PR302334-17 (antibody, human IgG1, kappa, V domains shown)
VH: B16 VH with A49S, T96A
VL: B17 VL
B21: PR302334-12 (antibody, human IgG1, kappa, V domains shown)
VH: B16 VH with S77T
VL: B16 VL
B22: PR302334-24 (antibody, human IgG1, kappa, V domains shown)
VH: B16 VH with Q13K, S74A
VL: B2 VL with V83L, Y87F
B23: PR302334-9 (antibody, human IgG1, kappa, V domains shown)
VH: B16 VH with S77T
VL: B2 VL
B24: PR302334-5 (antibody, human IgG1, kappa, V domains shown)
VH: B1 VH
VL: B16 VL with L83I, F87Y
B25: PR302334-22 (antibody, human IgG1, kappa, V domains shown)
VH: B16 VH with A49S, T96A
VL: B1 VL with F83L, Y87F
B26: PR302334-7 (antibody, human IgG1, kappa, V domains shown)
VH: B16 VH with S77T
VL: B1 VL
B27: PR302334-14 (antibody, human IgG1, kappa, V domains shown)
VH: B16 VH with S77T
VL: B17 VL
B28: PR302334-18 (antibody, human IgG1, kappa, V domains shown)
VH: B16 VH
VL: B17 VL
B29: PR302334-16 (antibody, human IgG1, kappa, V domains shown)
VH: B16 VH with Q13K, S74A
VL: B17 VL
B30: PR302334-8 (antibody, human IgG1, kappa, V domains shown)
VH: B16 VH with S77T
VL: B1 VL with F83L, Y87F
B31: PR302334-25 (antibody, human IgG1, kappa, V domains shown)
VH: B16 VH with Q13K, S74A
VL: B16 VL
B32: PR302334-11 (antibody, human IgG1, kappa, V domains shown)
VH: B16 VH with S77T
VL: B16 VL with L83I, F87Y

How the values were obtained:
Assay in all cases: cell-based or functional assay
[1] = target: T1, corticotropin-releasing hormone (CRH) …
[2] = target: T1, corticotropin-releasing hormone (CRH) …
[3] = target: T1, corticotropin-releasing hormone (CRH) …

Row | Binder | hCRHR1-Luc 0.5 nM CRH IC50 [1] | further results
1 | B1 | 0.624 nM | –
2 | B2 | 0.542 nM | –
3 | B3 | 0.597 nM | –
4 | B4 | 0.553 nM | –
5 | B5 | – | hCRHR1-Luc 0.5 nM CRH IC50 [2]: 0.243 nM
6 | B6 | – | hCRHR1-Luc 0.5 nM CRH IC50 [2]: 0.273 nM
7 | B7 | – | hCRHR1-Luc 0.5 nM CRH IC50 [3]: 4.42 nM
8 | B8 | – | hCRHR1-Luc 0.5 nM CRH IC50 [2]: 0.043 nM
9 | B9 | – | hCRHR1-Luc 0.5 nM CRH IC50 [3]: 0.454 nM
10 | B10 | – | hCRHR1-Luc 0.5 nM CRH IC50 [3]: 0.773 nM
11 | B11 | – | hCRHR1-Luc 0.5 nM CRH IC50 [3]: 1.26 nM
12 | B12 | – | hCRHR1-Luc 0.5 nM CRH IC50 [3]: 1.08 nM
13 | B13 | – | hCRHR1-Luc 0.5 nM CRH IC50 [2]: 0.518 nM
14 | B14 | – | hCRHR1-Luc 0.5 nM CRH IC50 [2]: 0.169 nM
15 | B15 | – | hCRHR1-Luc 0.5 nM CRH IC50 [3]: 2.22 nM
16 | B16 | 1.36 nM | –

Row | Binder | hCRHR1-Luc 0.5 nM CRH IC50 [1] | further results
17 | B17 | 5.12 nM | –
18 | B18 | 0.404 nM | –
19 | B19 | 0.839 nM | –
20 | B20 | 12.2 nM | –
21 | B21 | 0.986 nM | –
22 | B22 | 0.778 nM | –
23 | B23 | 1.42 nM | –
24 | B24 | 0.325 nM | –
25 | B25 | 0.92 nM | –
26 | B26 | 0.996 nM | –
27 | B27 | 0.468 nM | –
28 | B28 | 0.279 nM | –
29 | B29 | 0.339 nM | –
30 | B30 | 0.816 nM | –
31 | B31 | 1.7 nM | –
32 | B32 | 1 nM | –
